As usually defined, the EC50 is the concentration giving half of the maximal effect. Broadly, the IC50 is the concentration at which inhibition is half-maximal. The Kd is the concentration at which binding is half-saturated.

Read-outs that look alike come from different tables or passages of the source. A value given as a limit tells only on which side of the number the result lay.

Test [1] addresses T1, human EGFR on cells (human, UniProt P00533 25-1210). Description: cell-based or functional assay.
The target in test [2] is T1, human EGFR on cells. Description: A431 cell binding assay, anti-penta-His-Alexa488 detection.
The target in test [3] is T1, human EGFR on cells. In words: A431 cell EGF competition assay, competitor biotinylated EGF.
Test [4] has as its target T2, recombinant human extracellular domain of EGFR fused to an IgG1 Fc (human, UniProt P00533 25-645).
T2 construct: Bought from R&D Systems; The residues are stated for the panning reagent; also called EGFR-Fc; EGF R-Fc; not shown: IgG1 Fc
Description: SPR (ProteOn), EGFR-Fc captured on anti-human Fc IgG, FN3 domain as analyte. On the procedure:
Select EGFR-binding FN3 domains were screened to identify those with slow off-rates (koff) in binding to EGFR-Fc on a ProteOn XPR-36 instrument (Bio-Rad) to facilitate selection of high affinity binders. Goat anti-human Fc IgG (R&D systems), at a concentration of 5 μg/mL, was directly immobilized via amine coupling (at pH 5.0) on all 6 ligand channels in horizontal orientation on the chip with a flow rate of 30 μL/min in PBS containing 0.005% Tween-20. The immobilization densities averaged about 1500 Response Units (RU) with less than 5% variation among different channels. EGFR-Fc was captured on the anti-human Fc IgG surface to a density around 600 RU in vertical ligand orientation. All tested FN3 domains were normalized to a concentration of […] and tested for their binding in horizontal orientation. All 6 analyte channels were used for the FN3 domains to maximize screening throughput. The dissociation phase was monitored for 10 minutes at a flow rate of 100 μL/min. The inter-spot binding signals were used as references to monitor non-specific binding between analytes and the immobilized IgG surface, and were subtracted from all binding responses. The processed binding data were locally fit to a 1:1 simple Langmuir binding model to extract the koff for each FN3 domain binding to captured EGFR-Fc.
Binding affinity of selected EGFR-binding FN3 domains to recombinant EGFR extracellular domain was further characterized by surface Plasmon resonance methods using a Proteon Instrument (BioRad). The assay set-up (chip preparation, EGFR-Fc capture) was similar to that described above for off-rate analysis. Selected EGFR binding FN3 domains were tested at 1 μM concentration in 3-fold dilution series in the horizontal orientation. A buffer sample was also injected to monitor the baseline stability.

The target of test [5] is T1, human EGFR on cells. Description: cell-based or functional assay. This is another data set of the same source.
The target in test [6] is T3, human c-Met on cells (human, UniProt P08581 25-1390). Description: cell-based or functional assay.
In test [7] the target is T2, recombinant human extracellular domain …. Description: SPR (ProteOn), protocol of Example 3, recombinant EGFR extracellular domain. On the procedure:
All 6 analyte channels were used for the FN3 domains to maximize screening throughput. The dissociation phase was monitored for 10 minutes at a flow rate of 100 μL/min. The inter-spot binding signals were used as references to monitor non-specific binding between analytes and the immobilized IgG surface, and were subtracted from all binding responses. The processed binding data were locally fit to a 1:1 simple Langmuir binding model to extract the koff for each FN3 domain binding to captured EGFR-Fc.
Binding affinity of selected EGFR-binding FN3 domains to recombinant EGFR extracellular domain was further characterized by surface Plasmon resonance methods using a Proteon Instrument (BioRad). The assay set-up (chip preparation, EGFR-Fc capture) was similar to that described above for off-rate analysis. Selected EGFR binding FN3 domains were tested at 1 μM concentration in 3-fold dilution series in the horizontal orientation. A buffer sample was also injected to monitor the baseline stability. […] Two sets of reference data were subtracted from the response data: 1) the inter-spot signals to correct for the non-specific interactions between the EGFR-binding FN3 domain and the immobilized IgG surface; 2) the buffer channel signals to correct for baseline drifting due to the dissociation of captured EGFR-Fc surface over time. The processed binding data at all concentrations for each FN3 domain were globally fit to a 1:1 simple Langmuir binding model to extract estimates of the kinetic (kₘ, koff) and affinity (KD) constants.

The target of test [8] is T4, Recombinant human c-Met Fc chimera (human, UniProt P08581 16-932).
T4 construct: not shown: Fc part
In words: SPR (ProteOn), protocol of Example 3, recombinant c-Met extracellular domain.

In test [9] the target is T3, human c-Met on cells. In words: cell-based or functional assay. This is another data set of the same source.
Test [10] deals with T3, human c-Met on cells. Description: cell-based or functional assay. The source holds these as a separate data set.
Test [11] deals with T3, human c-Met on cells. In words: H441 cell binding assay, anti-His detection. On the procedure:
Purified FN3 domains (50 μL/well; 0 to 1000 nM) were added to the cells for 1 hour at 4° C. in duplicate plates. […] Cells were incubated with biotinylated-anti HIS antibody (diluted 1:160 in FACS stain buffer, 50 μL/well, R&D Systems, cat #BAM050) for 30 minutes at 4° C. […] Cells were washed three times with FACS stain buffer (150 μL/well) and left in FACS stain buffer (50 μL/well).

The target of test [12] is T4, Recombinant human c-Met Fc chimera. In words: HGF competition assay on coated c-Met-Fc, competitor biotinylated HGF.
Test [13] has the same target. In words: SPR (ProteOn), c-Met-Fc captured on anti-human Fc IgG, FN3 domain as analyte.

B1: P53A1R5-17 (designed binder, not shown: small tags and cut ends)
chain: LPAPKNLVVSEVTEDSLRLSWADPHGFYDSFLIQYQESEKVGEAINLTVPGSERSYDLTGLKPGTEYTVSIYGVHNVYKDTNMRGLPLSAEFTT
B1: in test [1], the “NCI-H292 Growth IC50” value stood at 0.086 µM, the “NCI-H322 Growth IC50” value came out at 0.065 µM and the “Phospho-EGFR IC50 (A431 cells)” value was more than 2.5 µM. Also, in test [2], it took 0.004 µM to reach a half-maximal effect (EC50). In test [3], this molecule had an IC50 of 0.0098 µM. Further, in test [4], the Kd came out at 0.00189 µM.

B2: P54AR4-73 (designed binder, not shown: small tags and cut ends)
chain: LPAPKNLVVSEVTEDSLRLSWTWPYADLDSFLIQYQESEKVGEAINLTVPGSERSYDLTGLKPGTEYTVSIYGVHNVYKDTNMRGLPLSAEFTT
On to B2, for which, in test [1], the “NCI-H292 Growth IC50” value was found to be 0.083 µM, the “NCI-H322 Growth IC50” value stood at 0.073 µM and the “Phospho-EGFR IC50 (A431 cells)” value is 0.141 µM. In addition, in [2], the EC50 amounted to 0.0094 µM. This molecule also had an IC50 in test [3] of 0.0046 µM. The Kd in test [4] came to 0.000197 µM.

B3: P54AR4-17 (designed binder, not shown: small tags and cut ends)
chain: LPAPKNLVVSEVTEDSLRLSWTYDRDGYDSFLIQYQESEKVGEAINLTVPGSERSYDLTGLKPGTEYTVSIYGVHNVYKDTNMRGLPLSAEFTT
For B3, the “Phospho-EGFR IC50 (A431 cells)” value in test [1] was 0.184 µM. Moreover, the EC50 in test [2] amounted to 0.016 µM. In test [3], the half-maximal inhibitory concentration (IC50) stood at 0.021 µM. Also, the Kd in test [4] stood at 0.00962 µM.

B4: P54AR4-74 (designed binder, not shown: small tags and cut ends)
chain: LPAPKNLVVSEVTEDSLRLSWGYNGDHFDSFLIQYQESEKVGEAINLTVPGSERSYDLTGLKPGTEYTVSIYGVHNVYKDTNMRGLPLSAEFTT
The molecule B4 yielded a half-maximal effective concentration (EC50) in [2] of 0.077 µM.

B5: P54AR4-48 (designed binder, not shown: small tags and cut ends)
chain: LPAPKNLVVSEVTEDSLRLSWDDPRGFYESFLIQYQESEKVGEAINLTVPGSERSYDLTGLKPGTEYTVSIYGVHNVYKDTNMRGLPLSAEFTT
As to B5, the “Phospho-EGFR IC50 (A431 cells)” value in [1] was 0.17 µM. The EC50 in [2] is 0.012 µM. The concentration for half-maximal inhibition (IC50) in [3] was found to be 0.0098 µM. Also, in test [4], the Kd is 0.00778 µM.

B6: P54AR4-83 (designed binder, not shown: small tags and cut ends)
chain: LPAPKNLVVSEVTEDSLRLSWDDPWAFYESFLIQYQESEKVGEAINLTVPGSERSYDLTGLKPGTEYTVSIYGVHNVYKDTNMRGLPLSAEFTT
As to B6, in test [1], the “NCI-H292 Growth IC50” value turned out to be 0.0059 µM, the “NCI-H322 Growth IC50” value amounted to 0.0092 µM and the “Phospho-EGFR IC50 (A431 cells)” value amounted to 0.018 µM. A half-maximal effect in [2] (EC50) was put at 0.0022 µM. This molecule came in with an IC50 in test [3] of 0.0018 µM. In addition, the equilibrium dissociation constant (Kd) in test [4] is 0.000255 µM.

B7: ECB106 (designed binder)
chain: MLPAPKNLVVSEVTEDSARLSWDDPHAFYESFLIQYQESEKVGEAIVLTVPGSERSYDLTGLKPGTEYTVSIYGVHNVYKDTNIRGLPLSAIFTTAPAPAPAPAPLPAPKNLVVSRVTEDSARLSWTAPDAAFDSFWIRYFEFLGSGEAIVLTVPGSERSYDLTGLKPGTEYVVNILGVKGGKISPPLSAIFTT
notes: not shown: C-terminal poly-histidine tag
B7: the “H292 pEGFR inhibition in H292 cells (IC50)” value (shortened to “H292 pEGFR inhibition”) in [5] came out at 367 nM. The “pMet inhibition in H441 cells (IC50)” value in test [6] was determined as 53.3 nM. Moreover, the values for the Kd in test [7] and in [8] were 0.0167 µM and 0.0051 µM, respectively.

B8: ECB109 (designed binder)
chain: MLPAPKNLVVSEVTEDSARLSWDDPHAFYESFLIQYQESEKVGEAIVLTVPGSERSYDLTGLKPGTEYTVSIYGVHNVYKDTNIRGLPLSAIFTTAPAPAPAPAPLPAPKNLVVSRVTEDSARLSWTAPDAAFDSFWIRYFEFLGSGEAIVLTVPGSERSYDLTGLKPGTEYVVNILSVKGGSISPPLSAIFTT
notes: as for B7
For the molecule B8, in test [5], the “H292 pEGFR inhibition” value is 432 nM. Also, the “pMet inhibition in H441 cells (IC50)” value in test [6] came to 26 nM. Further, the Kd in [7] amounted to 0.0173 µM; in [8], 0.0021 µM.

B9: ECB107 (designed binder)
chain: MLPAPKNLVVSEVTEDSARLSWDDPHAFYESFLIQYQESEKVGEAIVLTVPGSERSYDLTGLKPGTEYTVSIYGVHNVYKDTNIRGLPLSAIFTTAPAPAPAPAPLPAPKNLVVSRVTEDSARLSWTAPDAAFDSFWIRYFEFVGSGEAIVLTVPGSERSYDLTGLKPGTEYVVNILGVKGGSISPPLSAIFTT
notes: as for B7
Consider B9, for which the “H292 pEGFR inhibition” value in test [5] came out at 812 nM. The “pMet inhibition in H441 cells (IC50)” value in test [6] worked out at 29.9 nM. In addition, the values for the Kd in test [7] and in test [8] were 0.0169 µM and 0.009 µM, respectively.

B10: ECB108 (designed binder)
chain: MLPAPKNLVVSEVTEDSARLSWDDPHAFYESFLIQYQESEKVGEAIVLTVPGSERSYDLTGLKPGTEYTVSIYGVHNVYKDTNIRGLPLSAIFTTAPAPAPAPAPLPAPKNLVVSRVTEDSARLSWTAPDAAFDSFWIRYFEFVSKGDAIVLTVPGSERSYDLTGLKPGTEYVVNILGVKGGSISPPLSAIFTT
notes: as for B7
Take B10: the “H292 pEGFR inhibition” value in test [5] amounted to 814 nM. Further, the “pMet inhibition in H441 cells (IC50)” value in test [6] is 126 nM. The Kd in test [7] stood at 0.0153 µM; in [8], 0.0255 µM.

B11: P114AR5P74-A5 (designed binder, not shown: small tags and cut ends)
chain: LPAPKNLVVSRVTEDSARLSWTAPDAAFDSFWIRYDEVVVGGEAIVLTVPGSERSYDLTGLKPGTEYYVNILGVKGGSISVPLSAIFTT
Consider B11, for which the “inhibition of c-Met phosphorylation in HGF-stimulated NCI-H292 cells (IC50)” value in test [9] was 0.61 µM. Moreover, in test [10], the “Inhibition of Proliferation of U87-MG cells (IC50)” value turned out to be 0.464 µM and the “pMet inhibition in H441 cells (IC50)” value came to 1.08 µM. The molecule also yielded an EC50 in test [11] of 0.0187 µM. In test [12], the IC50 stood at 0.0052 µM. In [13], the dissociation constant Kd was 0.0101 µM.

B12: P54AR4-81 (designed binder, not shown: small tags and cut ends)
chain: LPAPKNLVVSEVTEDSLRLSWDYDLGVYFDSFLIQYQESEKVGEAINLTVPGSERSYDLTGLKPGTEYTVSIYGVHNVYKDTNMRGLPLSAEFTT
Regarding B12, a half-maximal response in test [2] (EC50) required 0.084 µM. In test [3], the 50% inhibitory concentration (IC50) came to 0.121 µM.

The record behind these values is patent US20140255408A1 (Janssen / Centocor, published 2014).
